Assay results taken from the supplement of paper PMC12667976.

B1: library; numbered along this chain (parent)
chain: MATDAALRRLLRLHRTEIAVAVDSAFPLLHALADHDVVPEDKFQETLHLKEKEGCPQAFHALLSWLLTQDSTAILDFWRVLFKDYNLERYGRLQPILDSFPKDVDLSQPRKGRKPPAVPKALVPPPRLPTKRKASEEARAAAPAALTPRGTASPGSQLKAKPPKKPESSAEQQRLPLGNGIQTMSASVQRAVAMSSGDVPGARGAVEGILIQQVFESGGSKKCIQVGGEFYTPSKFEDSGSGKNKARSSSGPKPLVRAKGAQGAAPGGGEARLGQQGSVPAPLALPSDPQLHQKNEDECAVCRDGGELICCDGCPRAFHLACLSPPLREIPSGTWRCSSCLQATVQEVQPRAEEPRPQEPPVETPLPPGLRSAGEEVRGPPGEPLAGMDTTLVYKHLPAPPSAAPLPGLDSSALHPLLCVGPEGQQNLAPGARCGVCGDGTDVLRCTHCAAAFHWRCHFPAGTSRPGTGLRCRSCSGDVTPAPVEGVLAPSPARLAPGPAKDDTASHEPALHRDDLESLLSEHTFDGILQWAIQSMARPAAPFPS

Variants of: B1
Experiment: AIRE transcriptional activation functional score (insulin promoter-GFP; nonsense median 0, synonymous median 1) (normalised score); higher = higher AIRE activity (more reporter activation)
Details: with insulin promoter-GFP reporter in HEK293
Experimental: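 Deep mutational scan of full-length human AIRE (codon-optimized cDNA, DT-POPCode NNN libraries over three regions) integrated at a Bxb1 landing pad in HEK293 cells carrying an insulin core promoter-GFP reporter at a Flp-In site. Cells were sorted for the top 10% GFP about 14 days after transfection. Variant frequency log-ratios (select vs non-select, TileSeq) were rescaled so that the nonsense median is 0 and the synonymous median is 1, then averaged over biological replicates.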

AIRE transcriptional activation functional score of substitutions, site by site:
P101: F -0.111; A 0.415; S -0.303; D 0.335; N 0.226; L 0.222; M 0.0755; T -0.239; V -1.95; I -0.0207; G 0.302; H 1.17; Y 0.166; W -5.52; R 0.861
D103: M -0.761; V 0.319; T 0.146; F 0.826; S 1.85; Y 0.675; K 0.633; N 0.59; L 0.32; Q 0.412; I 0.368; G 1.32; A 0.291; W 0.822; H 0.857; R 0.339; E 1.66; C 1.14; P -0.105
I96: Y 0.139; W -0.358; V 1.14
K102: F 1.34; Y 1.3; N 1.44; A -0.872; G 0.563; I 1.56; Q 2.65; W 1.77; R 2.19; D 0.758; T 1.28; M 0.607; H -1.63; E 1.25; L 0.643; S 0.749; C 0.948; P -1.25; V 0.889
L97: C 0.164; H 2.81; I -0.239; Q -0.412; T -0.118; W -1.69; A -0.272; P 0.384; E -2.05; F 1.29; Y 2.69; S -0.186; R 0.805; V 0.394; D 0.828; G -0.102; M 0.762; N -0.0633
L106: A -0.169; D 0.107; F 0.883; C -0.159; E 0.17
F100: C 0.447; K 0.809; L 0.191; P 1.03; W 1.58; H 0.644; I 0.0995; Y -0.017; T -2.46; G -0.223; D -0.111; V -0.124; M -0.57; S 0.172; Q 1.26; R -0.588; N 1.13; A 0.229; E -0.0797
D105: K 0.591; C 0.824; V 0.6; Q -0.785; E 0.837; R 0.481; S -0.0361; L 0.724; G 0.621; A 1.52; F 0.419; Y 1.72; T 0.553; H 0.701; N 0.431
D98: H 1.3; I 0.501; C 0.078; G -0.489; E 0.0399; R 0.621; F 0.239; Y 0.0432; W -0.885; L 0.703; S 0.163; A 0.771; K -0.443; T -0.235; N 0.841; M 1.55; P 0.632; Q 2.07; V 0.341
S99: M 1.07; K 1.65; R 0.357; D 0.205; C 1.07; W -0.319; Q -0.179; P 1.51; H 0.569; E 0.0893; Y -0.311; I 0.822; V 0.813; F 0.636; G 0.382; L 0.541; N 0.889; A -0.293
V104: G -0.0739; N -0.244; D -0.387; E 0.823; Y 0.986; R 0.389; I 0.904; H -0.483; C 0.343; F 1.15; Q 1.13; A -0.013; L 0.894; P 0.45; S -0.0986; K -0.552; T 0.284
